Measured values from article PMC10119177 (2023).

B1: recombinant CEACAM1 N-terminal domain with His tag (rCEACAM1-N-HIS), wildtype [human] / IgI3 domain of R28 (R28-IgI3), wildtype [Streptococcus pyogenes] (parent complex)
chain 1: AQLTTESMPFNVAEGKEVLLLVHNLPQQLFGYSWYKGERVDGNRQIVGYAIGTQQATPGPANSGRETIYPNASLLIQNVTQNDTGFYTLQVIKSDLVNEEATGQFHVY
chain 2: TAPTLTVTPEQQTVKVDEDITFTVTVEDENEVELGLDDLKAKYENDIIGARVKIKYLTKEPNKKVMEVTIMKATLADKGAITFTAKDKAGNQAEPKTVTINVLPLKDSNEPKLPSTGGS

Variants of: B1
Experiment: Dynabead binding assay (Dynabeads coated with R28-IgI3, DB.R28IgI3, incubated with rCC1-N); parent: 33; read off a plot

Row | Variant | response
1 | chain 2 TAPTLTVTPEQQTVKVDEDITFTVTVEDENEVELGLDDLKAKYENDIAGARVKIKYLTKEPNKKVMEVTIMKATLADKGAITFTAKDKAGNQAEPKTVTINVLPLKDSNEPKLPSTGGS | ~5.5
2 | chain 2 TAPTLTVTPEQQTVKVDEDITFTVTVEDENEVELGLDDLKAKYENDIIGARVKAKYLTKEPNKKVMEVTIMKATLADKGAITFTAKDKAGNQAEPKTVTINVLPLKDSNEPKLPSTGGS | ~19
3 | chain 2 TAPTLTVTPEQQTVKVDEDITFTVTVEDENEVELGLDDLAAKYENDIIGARVKIKYLTKEPNKKVMEVTIMKATLADKGAITFTAKDKAGNQAEPKTVTINVLPLKDSNEPKLPSTGGS | ~7
4 | chain 2 TAPTLTVTPEQQTVKVDEDITFTVTVEDENEVELGLDDLKAKYENDAIGARVKIKYLTKEPNKKVMEVTIMKATLADKGAITFTAKDKAGNQAEPKTVTINVLPLKDSNEPKLPSTGGS | ~5.5
5 | chain 2 TAPTLTVTPEQQTVKVDEDITFTVTVEDENEVELGLDDLKAKYENDIIGARVKIKYLTAEPNKKVMEVTIMKATLADKGAITFTAKDKAGNQAEPKTVTINVLPLKDSNEPKLPSTGGS | ~21
6 | chain 2 TAPTLTVTPEQQTVKVDEDITFTVTVEDENEVELGLDDLKAKYANDIIGARVKIKYLTKEPNKKVMEVTIMKATLADKGAITFTAKDKAGNQAEPKTVTINVLPLKDSNEPKLPSTGGS | ~40
7 | chain 2 TAPTLTVTPEQQTVKVDEDITFTVTVEDENEVELGLDDLKAKYENDIIGARVKIKALTKEPNKKVMEVTIMKATLADKGAITFTAKDKAGNQAEPKTVTINVLPLKDSNEPKLPSTGGS | ~7

Variants of: B1
Experiment: Dynabead binding assay (Dynabeads coated with R28-IgI3, DB.R28IgI3, incubated with rCC1-N variants); parent: 23; read off a plot

Row | Variant | response
8 | chain 1 AQLTTESMPFNVAEGKEVLLLVHNLPQQLFGYSWYKGERVDGNRQIVGYAIGTQQATPGPANSGRETIYPNASLLIQNVTQNDTGFYTLAVIKSDLVNEEATGQFHVY | ~10
9 | chain 1 AQLTTESMPFNVAEGKEVLLLVHNLPQQLFGYSWYKGERVDGNRQIVGYAIGTQQATPGPANSGRETIYPNASLLIQNVTQNDTGFYTLQVAKSDLVNEEATGQFHVY | ~5
10 | chain 1 AQLTTESMPFNVAEGKEVLLLVHNLPQQLAGYSWYKGERVDGNRQIVGYAIGTQQATPGPANSGRETIYPNASLLIQNVTQNDTGFYTLQVIKSDLVNEEATGQFHVY | ~5.5
11 | chain 1 AQLTTESMPFNVAEGKEVLLLVHNLPQQLFGYSWYKGERVDGNRQIVGYAIGTQQATPGPANSGRETIYPNASLLIQNVTQNDTGFYTLQVIKSDAVNEEATGQFHVY | ~6
12 | chain 1 AQLTTESMPFNVAEGKEVLLLVHNLPQQLFGYSWYKGERVDGNRQIVGYAIGTQQATPGPANSGRETIYPNASLLIQNVTQNDTGFYTLQVIKSDLANEEATGQFHVY | ~100
13 | chain 1 AQLTTESMPFNVAEGKEVLLLVHNLPQQLFGYSWYKGERVDGNRQIVGYAIGTQQATPGPANSGRETIYPNASLLIQNVTQNDTGFYTLQVIKSDLVAEEATGQFHVY | ~90
14 | chain 1 AQLTTESMPFNVAEGKEVLLLVHNLPQQLFGYSWYKGERVDGNRAIVGYAIGTQQATPGPANSGRETIYPNASLLIQNVTQNDTGFYTLQVIKSDLVNEEATGQFHVY | ~20
